Patent US20240033244A1, “COMPOSITIONS AND METHODS FOR INHIBITING YTHDF1” (SHANGHAI INSTITUTE OF MATERIA MEDICA, CHINESE ACADEMY OF …, priority 2020, published 2024)
Where a chain is given by its changes, count along the chain named.

Legend:
B16-OVA melanoma = experiment: B16-OVA tumor growth in wild-type mice; format: in vivo, mouse; conditions: 5×10^5 B16-OVA in C57BL/6 mice, 10 μM i.v. 9 days after implantation (FIG. 19)
His-YTHDF1 (361-559) = molecular target: T1, His-YTHDF1 (361-559) (UniProt Q9BYJ9 SEQ:40-238); experiment: AlphaScreen; 20 mM Hepes pH 7.4, 150 mM NaCl, BSA, TritonX-100; binding inhibited by SAA; conditions: tags: His; label: 5'-biotin
T1 sequence: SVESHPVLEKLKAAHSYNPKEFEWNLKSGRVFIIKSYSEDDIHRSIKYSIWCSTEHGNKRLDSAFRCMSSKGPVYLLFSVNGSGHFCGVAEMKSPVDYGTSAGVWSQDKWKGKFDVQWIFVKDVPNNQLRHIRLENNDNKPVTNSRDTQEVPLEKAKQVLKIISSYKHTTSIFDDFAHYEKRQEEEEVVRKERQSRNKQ
Method: Then 10 nM biotinylated m⁶A-containing mRNA (5′-biotin-[…] (m⁶A) CUGUG-3′) (SEQ ID NO: 15) was added to bind with YTHDF1 (361-559), and unbiotinylated m⁶A-containing mRNA was used as the positive control. Before Alpha signal detection, streptavidin donor beads and anti-His acceptor beads were added into the white assay plate in subdued light (OptiPlate™-384, PerkinElmer) and incubated at 4° C. for 1 hour to ensure sufficient binding between biotin tag and streptavidin donor beads, as well as that between His tag and anti-His acceptor beads. Then the Alpha signal was detected on Envision Readers (PerkinElmer).

YTHDF1 (361-559) H528A = molecular target: T2, YTHDF1 (361-559) H528A (UniProt Q9BYJ9 SEQ:3-201, H528A); experiment: FP; value only in figure; affinity not influenced vs wild type; conditions: tags: GST tag removed; label: 5'-FAM
T2 sequence: T1 sequence with H168A

YTHDF1 (361-559) F480A = molecular target: T3, YTHDF1 (361-559) F480A (UniProt Q9BYJ9 SEQ:3-201, F480A); experiment: as above; conditions: tags: GST tag removed; label: 5'-FAM
T3 sequence: T1 sequence with F120A

[1] = molecular target: T4, YTHDF1 C-terminal truncation (UniProt Q9BYJ9 SEQ:3-174); experiment: as above; conditions: tags: GST tag removed; label: 5'-FAM
T4 chain: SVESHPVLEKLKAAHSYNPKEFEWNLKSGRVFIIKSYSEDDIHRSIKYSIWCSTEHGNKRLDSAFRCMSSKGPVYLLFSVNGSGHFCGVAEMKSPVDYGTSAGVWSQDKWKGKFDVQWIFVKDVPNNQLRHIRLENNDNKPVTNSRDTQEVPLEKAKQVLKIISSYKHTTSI

YTHDF1 (361-559) N378A = molecular target: T5, YTHDF1 (361-559) N378A (UniProt Q9BYJ9 SEQ:3-201, N378A); experiment: as above; conditions: tags: GST tag removed; label: 5'-FAM
T5 sequence: T1 sequence with N18A

YTHDF1 (361-559) W384A = molecular target: T6, YTHDF1 (361-559) W384A (UniProt Q9BYJ9 SEQ:3-201, W384A); experiment: as above; conditions: tags: GST tag removed; label: 5'-FAM
T6 sequence: T1 sequence with W24A

YTHDF1 (361-559) F382A = molecular target: T7, YTHDF1 (361-559) F382A (UniProt Q9BYJ9 SEQ:3-201, F382A); experiment: as above; conditions: tags: GST tag removed; label: 5'-FAM
T7 sequence: T1 sequence with F22A

YTHDF1 (361-559) R506A = molecular target: T8, YTHDF1 (361-559) R506A (UniProt Q9BYJ9 SEQ:3-201); experiment: FP; binding seen through SAA inhibition assay; affinity not given; conditions: tags: GST tag removed; label: 5'-FAM
T8 chain: T1 sequence with R146A

YTHDF1 (361-559) K395A = molecular target: T9, YTHDF1 (361-559) K395A (UniProt Q9BYJ9 SEQ:3-201); experiment: as above; conditions: tags: GST tag removed; label: 5'-FAM
T9 chain: T1 sequence with K35A

YTHDF1 (361-559) C412A = molecular target: T10, YTHDF1 (361-559) C412A (UniProt Q9BYJ9 SEQ:3-201); experiment: as above; conditions: tags: GST tag removed; label: 5'-FAM
T10 chain: T1 sequence with C52A

YTHDF1 (361-559) Y397A = molecular target: T11, YTHDF1 (361-559) Y397A (UniProt Q9BYJ9 SEQ:3-201); experiment: as above; conditions: tags: GST tag removed; label: 5'-FAM
T11 chain: T1 sequence with Y37A

[2] = molecular target: T12, YTHDF1 (361-559), YTH domain (UniProt Q9BYJ9 SEQ:3-201); experiment: FP; value only in figure; 20 mM Hepes pH 7.4, 50 mM NaCl, 0.01% tween 20, 5% glycerol, 4 C; conditions: tags: GST tag removed; E. coli BL21(DE3); label: 5'-FAM
T12 sequence: T1 sequence

O=C(/C=C/c1ccc(O)c2oc(-c3ccc(O)c(O)c3)cc12)O[C@H](Cc1ccc(O)c(O)c1)C(=O)O [SAC, Salvianolic Acid C]
tumor growth versus DMSO (B16-OVA melanoma): tumor growth was much slower

B1: 5'-biotin m6A-containing mRNA (ssRNA)
RNA: UUCUUCUGUGGACUGUG
modifications: m6A at position 12 (UUCUUCUGUGG(m6A)CUGUG)
binding result (His-YTHDF1 (361-559)): binds

B2: 5'-FAM m6A-containing mRNA (ssRNA)
RNA: UUCUUCUGUGGACUGUG
modifications: m6A at position 12 (UUCUUCUGUGG(m6A)CUGUG)
binding result (YTHDF1 (361-559) H528A): binds
binding result (YTHDF1 (361-559) F480A): binds
binding result [1]: binds
binding result (YTHDF1 (361-559) N378A): binds
binding result (YTHDF1 (361-559) W384A): binds
binding result (YTHDF1 (361-559) F382A): binds
binding result (YTHDF1 (361-559) R506A): binds
binding result (YTHDF1 (361-559) K395A): binds
binding result (YTHDF1 (361-559) C412A): binds
binding result (YTHDF1 (361-559) Y397A): binds
binding result [2]: binds
